Target: T1, GST-tagged mature full-length GET3b (GST-Get3b) (Arabidopsis thaliana, UniProt A1L4Y1 68-411)
T1 construct: The results say 'GET3B C-terminally fused to GST'; The name GST-Get3b and the vector pGex-4T-3 fit GST at the N-terminus; also called AtGET3B; source: E. coli Rosetta2(DE3), purified (glutathione-sepharose); not shown: GST, N-terminal, kept
T1 sequence (looked up): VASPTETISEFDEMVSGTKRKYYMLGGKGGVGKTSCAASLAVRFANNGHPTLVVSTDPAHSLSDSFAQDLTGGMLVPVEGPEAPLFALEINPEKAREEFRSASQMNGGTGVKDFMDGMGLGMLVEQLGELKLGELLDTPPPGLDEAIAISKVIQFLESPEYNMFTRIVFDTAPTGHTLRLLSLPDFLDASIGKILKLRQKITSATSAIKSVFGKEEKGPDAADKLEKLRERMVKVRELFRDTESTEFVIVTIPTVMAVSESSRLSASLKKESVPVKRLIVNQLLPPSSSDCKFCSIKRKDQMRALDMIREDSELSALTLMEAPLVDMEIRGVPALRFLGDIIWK
Experiment: pull-down; 50 μg GST-Get3b (or GST) with 20 μg Alb3C-His or Alb4C-His in 120 μl 1x PBS, 10 min at room temperature; held on glutathione resin 30 min, washed with 5 ml PBS, eluted with 10 mM reduced glutathione; immunoblot with antibodies against Alb3, Alb4 or GST
Settings: both partners purified

B1: His-tagged C-terminal region of ALB3 (Alb3C-His) (domain or fragment, Arabidopsis thaliana, UniProt Q8LBP4 350-462, looked up)
chain: VYLRKLGGAKPNMDENASKIISAGRAKRSIAQPDDAGERFRQLKEQEKRSKKNKAVAKDTVELVEESQSESEEGSDDEEEEAREGALASSTTSKPLPEVGQRRSKRSKRKRTV
notes: ALB3 of Arabidopsis thaliana, stromal C-terminal region, aa 350-462; also called Alb3-His; source: E. coli Rosetta2(DE3), purified (nickel-nitrilotriacetic acid); not shown: His tag, C-terminal, kept
  binding result: binds

B2: His-tagged C-terminal region of ALB4 (Alb4C-His) (domain or fragment, Arabidopsis thaliana, UniProt Q9FYL3 334-499, looked up)
chain: VWLQKYGGAKNPVEKFTNLVTKEDKTQQIEKSFSEPLVQKSVSELKIPREKGGEKVTPECPKPGERFRLLKEQEAKRRREKEERQKAEAALSNQNTDKAHEQDEKSDTAIVAEDDKKTELSAVDETSDGTVAVNGKPSIQKDETTNGTFGIGHDTEQQHSHETEKR
notes: ALB4 (STIC1) of Arabidopsis thaliana, stromal C-terminal region, aa 334-499; source: E. coli Rosetta2(DE3), purified (nickel-nitrilotriacetic acid); not shown: His tag, C-terminal, kept
  binding result: binds

— article PMC12040988, “GET3B is involved in chloroplast biogenesis and interacts with the thylakoidal ALB3 and ALB4 insertases” (Plant Cell Reports, 2025)
